Here are results for one protein from PMC11500612, “Differential effects of inosine monophosphate dehydrogenase (IMPDH/GuaB) inhibition in Acinetobacter baumannii and Escherichia coli” (Journal of Bacteriology, 2024).

This series deals with the molecule itself. As to the kind of experiment: crystal structure.

B1: A. baumannii GuaB with CBS domain deletion protein (M1-G488_ΔM93-R201) (enzyme)
chain: MLTIVQEALTFDDVLLLPAYSTVLPKDVSLKTRLTRGIYLNIPLVSAAMDTVTESRMAIAMAQNGGIGILHKNMDIAAQAAEVRRVKKFEAGKAESYPNSCKDDLGRLRVGAAVGTGADTPSRVEALVEAGVDVIVVDTAHGHSAGVIERVRWVKQNFPQVQVIGGNIATGDAALALLDAGADAVKVGIGPGSICTTRIVAGIGMPQISAIDSVASALKDQIPLIADGGIRFSGDMAKAIGAGASTIMVGSLLAGTEEAPGEVEFFQGRYYKAYRGMGSLGAMAGATGSADRYFQDSKAGAEKLVPEGIEGRVPYKGPMGNIVHQMMGGLRSSMGYTGSAVIEDLRQNAKFVKITSAGMSESHVHDVTITKEAPNYRVG
notes: also called A. baumannii GuaBΔCBS; GuaB^Ab; source: expressed, purified, and crystallized as described (28)
In the case of B1, the binding result is reported as “binds”.
